Results on three molecules are retold here after patent US20040241163A1 (published 2004).

What is called Kd is the free concentration of one partner at which half of the binding sites on the other are occupied at equilibrium, for simple one-to-one binding. High values mean a looser complex, low ones a tighter complex.

First the molecules themselves.
T1: interferon-γ (UniProt P01579 24-166)
T1 construct: also called IFN-γ
T1 sequence: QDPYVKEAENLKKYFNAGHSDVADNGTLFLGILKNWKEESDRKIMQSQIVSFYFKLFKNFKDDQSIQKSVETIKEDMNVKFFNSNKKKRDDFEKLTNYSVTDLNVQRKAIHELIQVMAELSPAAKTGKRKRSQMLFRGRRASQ

B1: RANTES (regulated upon activation, normal T cell expressed and secreted) (ligand)
chain: SPYSSDTTPCCFAYIARPLPRAHIKEYFYTSGKCSNPAVVFVTRKNRQVCANPEKKWVREYINSLEMS
modifications: also: 125I-labeled in tracer form, position not given here
notes: also called 125I-labeled RANTES; 125I-RANTES
B2: secreted HCMV UL21.5 protein (UL21.5 activity in concentrated supernatant of wild-type HCMV-infected human fibroblasts) (other)
chain: APSQKSKRSVTVEQPSTSADGSNTTPSKNVTLSQGGSTTDGDEDYSGEYDVLITDGDGSEHQQPQKTDEHKENQAKENEKKIQ
modifications: highly glycosylated (sites not given)
notes: Not purified: tested as 300-fold concentrated serum-free culture medium of fibroblasts infected with wild-type AD169 virus; Secreted forms of 45 kDa and 25 kDa are cited; also called Wt supernatant; HCMV-infected cell supernatant
B3: MIP-1α (ligand)
chain: SLAADTPTACCFSYTSRQIPQNFIADYFETSSQCSKPGVIFLTKRSRQVCADPSEEWVQKYVSDLELSA
modifications: also: 125I-labeled in tracer form, position not given here
notes: also called MIP-1 alpha; 125I-labeled MIP-1α

Test [1] has as its target B2. The experiment in a line: Scatchard analysis, 125I-RANTES (25-500 pM) with infected cell supernatant, PEG precipitation and filtration.
The target in test [2] is B2. Put plainly: summary in the description of the Scatchard analysis of Example 4 (rounded value).
A further test has as its target T1, interferon-γ. The experiment in a line: competition of unlabeled cytokine with 125I-RANTES for cross-linking to UL21.5.
Test [3] deals with B2. The experiment in a line: EDC cross-linking of 125I-chemokine to infected cell supernatant, SDS-PAGE autoradiogram.

For B1, the Kd in test [1] was 0.147 nM; in test [2], 0.15 nM.

Consider B2, for which the binding result in the test with interferon-γ was “no binding”.

With B3, the binding result in test [3] is “no binding (tested: 0.4 nM 125I-labeled chemokine)”.
